Experimental data reported in PMC6294747, “Plasmodium falciparum infected erythrocytes can bind to host receptors integrins αVβ3 and αVβ6 through DBLδ1_D4 domain of PFL2665c PfEMP1 protein” (Scientific Reports, 2018).

Columns and labels:
[1] = molecular target: T1, integrin αVβ6 (R&D Systems, Cat #3817-AV) (UniProt P06756 31-1048; P18564 22-709, biotinylated (for the bead assays; sites not stated) | biotinylated (for the bead assays; sites not stated)); test: Bio-Plex bead binding assay, initial velocities with Lineweaver-Burk plot; avidity constants; beads with immobilised PFL2665c DBLδ1_D4; biotinylated integrin at 3, 6 and 12 µg/ml, 0, 10, 30 min (αVβ3) or 0, 5, 15 min (αVβ6); 1xTBS, 1 mM CaCl2, 1 mM MgCl2; streptavidin-PE; corrected for HisAdEx; conditions: both partners purified
T1 construct: integrin alpha-V chain of soluble recombinant αVβ6; integrin beta-6 chain of soluble recombinant αVβ6; Molecular weight 189.1 kDa according to the manufacturer; Biotinylated when used in solution on beads; immobilised on Petri dishes for the adhesion assays; also called recombinant αVβ6; source: bought: R&D Systems, Cat #3817-AV

[2] = molecular target: T2, integrin αVβ3 (R&D Systems, Cat #3050-AV) (human, UniProt P06756 31-1048; P05106 27-718, biotinylated (for the bead assays; sites not stated) | biotinylated (for the bead assays; sites not stated)); test: as above; conditions: both partners purified
T2 construct: integrin alpha-V chain of soluble recombinant αVβ3; integrin beta-3 chain of soluble recombinant αVβ3; Molecular weight 191.3 kDa according to the manufacturer; Biotinylated when used in solution on beads; immobilised on Petri dishes for the adhesion assays; also called αVβ3 integrin; soluble recombinant αVβ3; source: bought: R&D Systems, Cat #3050-AV

B1: DBLδ1_D4 domain of PFL2665c PfEMP1 (single domain) (domain or fragment)
chain: GDDLKQACSTKYGPKAPTSWKCVPSGVSTATSGEGGDAKSRERREAGVPTATSSGNTTGGGKDGATGGSICVPPRRRRLYVGGLTKWAKKYTGNTGESKSQEGVLQTKAVVDGKANAEGGGQKGARGPNGGTEGANSGKGAQQQQEQQQEQQQEQQQQQQQQQQQQPHSTDSSSSPPSSNPRDVDLRNAFVESAAIETFFLWDRYKKEKEKEKEDIEKNGQDTVAYTSSVEKDPQEELQRGDIPDGFLRQMFYTLGDYRDILYSGDKENGNKYMLVDDIKDISDKIKSILNSDVGQKTTAKQWWDDNGQHIWNGMIYALTYNTDTPSGDKPTQIDEVRAQLWDEKEKKPKKTDNDHDYTYENVELKEDDDQSGAKTPSASSGSNDPINNPQLSDFVEIPTYFRWLHEWGSDFCGTRKRMLGKIKHECRGDKVCSGYGENCDDQLKDNPSIFPSLNCPSCGTPCRYYKKWINTKKTEYDKQKSAYEQQQGKCEKENNGAEGNDHDKKFCTRIQNCNEAKDFLKTLGPCRTNDESGKGTLYFDDDTFKH
Binder B1 has a Kd [1] of 56.4 nM and a Kd [2] of 62 nM.
